From article PMC12381204

How the values were obtained:
[1] = biological target: Phosphorylated SARS-CoV-2 Nucleocapsid protein (pN), full length, phosphorylated in vitro with GSK-3β and SRPK1 (SARS-CoV-2) (UniProt P0DTC9); test: […]; 20 mM Tris-HCl, 150 mM NaCl, pH 7.5, 37 °C
[2] = biological target: SARS-CoV-2 Nucleocapsid protein (N), full length, unmodified (SARS-CoV-2) (UniProt P0DTC9); test: […]; 20 mM Tris-HCl, 150 mM NaCl, pH 7.5, 37 °C
[3] = biological target: non-structural protein 3 (Nsp3) ubiquitin-like domain 1 (Ubl1), 1-111
[4] = biological target: Membrane (M) protein C-terminal endodomain, 104-222 (UniProt P0DTC5)

Q: With “6xHis-GFP-Nsp3^1-111, ubiquitin-like domain 1 (Ubl1) of SARS-CoV-2 non-structural protein 3 (Nsp3) (domain or fragment)” as the substance, how does the partition coefficient [1] read?
A: 2.2

Q: And the partition coefficient [2]?
A: 12.6

Q: “Nucleocapsid protein (N) (from UniProt P0DTC9)” was tested. Which “other: partition coefficient” value [3] did it give?
A: weaker; reference 12.6 ± 0.1

Q: What about the “other: partition coefficient” value [4] of the same substance?
A: lost; reference 9.8 ± 0.3

Q: “6xHis-GFP-M^104-222, C-terminal endodomain of the SARS-CoV-2 Membrane (M) protein (from UniProt P0DTC5 104-222) (domain or fragment)” was tested. Which partition coefficient [1] did it give?
A: 0.3

Q: What about the partition coefficient [2] of the same substance?
A: 9.8
